Laboratory results reported in patent US10196657B2, “Methods of producing 7-carbon chemicals via methyl-ester shielded carbon chain elongation” (INVISTA North America S.á r.l., priority 2012, dated 2019).

B1: SEQ ID NO 13: Vibrio fluvialis ω-transaminase, Genbank Accession No. AEA39183.1 (protein, listed as Vibrio fluvialis)
chain: MNKPQSWEARAETYSLYGFTDMPSLHQRGTVVVTHGEGPYIVDVNGRRYLDANSGLWNMVAGFDHKGLIDAAKAQYERFPGYHAFFGRMSDQTVMLSEKLVEVSPFDSGRVFYTNSGSEANDTMVKMLWFLHAAEGKPQKRKILTRWNAYHGVTAVSASMTGKPYNSVFGLPLPGFVHLTCPHYWRYGEEGETEEQFVARLARELEETIQREGADTIAGFFAEPVMGAGGVIPPAKGYFQAILPILRKYDIPVISDEVICGFGRTGNTWGCVTYDFTPDAIISSKNLTAGFFPMGAVILGPELSKRLETAIEAIEEFPHGFTASGHPVGCAIALKAIDVVMNEGLAENVRRLAPRFEERLKHIAERPNIGEYRGIGFMWALEAVKDKASKTPFDGNLSVSERIANTCTDLGLICRPLGQSVVLCPPFILTEAQMDEMFDKLEKALDKVFAEVA
B2: SEQ ID NO 10: Pseudomonas syringae ω-transaminase, Genbank Accession No. AAY39893.1 (protein, listed as Pseudomonas syringae)
chain: MSANNPQTLEWQALSSEHHLAPFSDYKQLKEKGPRIITRAEGVYLWDSEGNKILDGMSGLWCVAIGYGREELADAASKQMRELPYYNLFFQTAHPPVLELAKAISDIAPEGMNHVFFTGSGSEGNDTMLRMVRHYWALKGQPNKKTIISRVNGYHGSTVAGASLGGMTYMHEQGDLPIPGVVHIPQPYWFGEGGDMTPDEFGIWAAEQLEKKILELGVENVGAFIAEPIQGAGGVIVPPDSYWPKIKEILSRYDILFAADEVICGFGRTSEWFGSDFYGLRPDMMTIAKGLTSGYVPMGGLIVRDEIVAVLNEGGDFNHGFTYSGHPVAAAVALENIRILREEKIVERVRSETAPYLQKRLRELSDHPLVGEVRGVGLLGAIELVKDKTTRERYTDKGAGMICRTFCFDNGLIMRAVGDTMIIAPPLVISFAQIDELVEKARTCLDLTLAVLQG

What was measured:
Assay type in all cases: biochemical
[1] = ω-transaminase activity assay, reverse direction (7-aminoheptanoate to pimelate semialdehyde); conditions: cell free extract, 10 mM 7-aminoheptanoate, 10 mM pyruvate, 25° C., 4 h; against empty vector control; FIG. 15
Experimental: (§1) A sequence encoding an N-terminal His-tag was added to the genes from Chromobacterium violaceum, Pseudomonas syringae, Rhodobacter sphaeroides, and Vibrio Fluvialis encoding the ω-transaminases of SEQ ID NOs: 8, 10, 11 and 13, respectively (see FIGS. 7F and 7G) such that N-terminal HIS tagged ω-transaminases could be produced. Each of the resulting modified genes was cloned into a pET21a expression vector under control of the T7 promoter and each expression vector was transformed into a BL21[DE3] E. coli host. The resulting recombinant E. coli strains were cultivated at 37° C. in a 250 mL shake flask culture containing 50 mL LB media and antibiotic selection pressure, with shaking at 230 rpm. Each culture was induced overnight at 16° C. using 1 mM IPTG.
(§2) The pellet from each induced shake flask culture was harvested via centrifugation. Each pellet was resuspended and lysed via sonication. The cell debris was separated from the supernatant via centrifugation and the cell free extract was used immediately in enzyme activity assays.
Enzyme activity assays in the reverse direction (i.e., 7-aminoheptanoate to pimelate semialdehyde) were performed in a buffer composed of a final concentration of 50 mM HEPES buffer (pH=7.5), 10 mM 7-aminoheptanoate, 10 mM pyruvate and 100 μM pyridoxyl 5′ phosphate. Each enzyme activity assay reaction was initiated by adding cell free extract of the ω-transaminase gene product or the empty vector control to the assay buffer containing the 7-aminoheptanoate and incubated at 25° C. for 4 h, with shaking at 250 rpm. The formation of L-alanine from pyruvate was quantified via RP-HPLC.

[2] = ω-transaminase activity assay, forward direction (pimelate semialdehyde to 7-aminoheptanoate); conditions: for acceptance of pimelate semialdehyde as substrate (formation of pyruvate from L-alanine, RP-HPLC): cell free extract, 10 mM pimelate semialdehyde, 10 mM L-alanine, 25° C., 4 h, against empty vector control, FIG. 16; for acceptance of pimelate semialdehyde as substrate, synthesizing 7-aminoheptanoate (conclusion from confirmed reversibility): concluded from reversibility of the ω-transaminase activity
Experimental: as §1, §2
Enzyme activity in the forward direction (i.e., pimelate semialdehyde to 7-aminoheptanoate) was confirmed for the transaminases of SEQ ID NO 10, SEQ ID NO 11 and SEQ ID NO 13. Enzyme activity assays were performed in a buffer composed of a final concentration of 50 mM HEPES buffer (pH=7.5), 10 mM pimelate semialdehyde, 10 mM L-alanine and 100 μM pyridoxyl 5′ phosphate. Each enzyme activity assay reaction was initiated by adding a cell free extract of the ω-transaminase gene product or the empty vector control to the assay buffer containing the pimelate semialdehyde and incubated at 25° C. for 4 h, with shaking at 250 rpm. The formation of pyruvate was quantified via RP-HPLC.

[3] = ω-transaminase activity assay, 7-aminoheptanol to 7-oxoheptanol
Experimental: A nucleotide sequence encoding an N-terminal His-tag was added to the Chromobacterium violaceum, Pseudomonas syringae and Rhodobacter sphaeroides genes encoding the ω-transaminases of SEQ ID NOs: 8, 10 and 11, respectively (see FIGS. 7F and 7G) such that N-terminal HIS tagged ω-transaminases could be produced. The modified genes were cloned into a pET21a expression vector under the T7 promoter. Each expression vector was transformed into a BL21[DE3] E. coli host. Each resulting recombinant E. coli strain were cultivated at 37° C. in a 250 mL shake flask culture containing 50 mL LB media and antibiotic selection pressure, with shaking at 230 rpm. Each culture was induced overnight at 16° C. using 1 mM IPTG.
as §2
Enzyme activity assays in the reverse direction (i.e., 7-aminoheptanol to 7-oxoheptanol) were performed in a buffer composed of a final concentration of 50 mM HEPES buffer (pH=7.5), 10 mM 7-aminoheptanol, 10 mM pyruvate, and 100 μM pyridoxyl 5′ phosphate. Each enzyme activity assay reaction was initiated by adding cell free extract of the ω-transaminase gene product or the empty vector control to the assay buffer containing the 7-aminoheptanol and then incubated at 25° C. for 4 h, with shaking at 250 rpm. The formation of L-alanine was quantified via RP-HPLC.

Molecule	acceptance of 7-aminoheptanoate as substrate (formation of L-alanine from pyruvate, RP-HPLC) [1]	acceptance of pimelate semialdehyde as substrate (formation of pyruvate from L-alanine, RP-HPLC) [2]	acceptance of pimelate semialdehyde as substrate, synthesizing 7-aminoheptanoate (conclusion from confirmed reversibility) [2]	acceptance of 7-aminoheptanol as substrate (formation of L-alanine, RP-HPLC) ([3]; cell free extract, 10 mM 7-aminoheptanol, 10 mM pyruvate, 25° C., 4 h, against empty vector control, FIG. 19)	acceptance of 7-oxoheptanol as substrate, forming 7-aminoheptanol (concluded from reversibility) ([3]; concluded from reversibility of the ω-transaminase activity (Example 2))
B1	accepted 7-aminoheptanote as substrate	accepted pimelate semialdehyde as substrate	accepted pimelate semialdehyde as substrate		
B2	accepted 7-aminoheptanote as substrate	accepted pimelate semialdehyde as substrate	accepted pimelate semialdehyde as substrate	accepted 7-aminoheptanol as substrate	accept 7-oxoheptanol as substrate
